Measurements: patent US20140087995A1 (published 2014)
Numbered stars: 1 amine (or outer) side, 2 acyl side, 3 side chain; on linkers, the order of the positions; unused ones are H or OH. Bridge positions count the residues as written; N and C are the ends. Side chains are listed from the residue outwards. Ends that are not written are not given here. * marks the point of attachment. C20 diacid = O=C(O)CCCCCCCCCCCCCCCCCCC(=O)*; γGlu = O=C(O)[C@H](CCC(=O)[*:2])N[*:1]

T1: human calcitonin receptor (human, UniProt P30988 25-474)
T1 construct: whole, on cells; Used as membranes prepared from a BHK tk'ts 13 cell line stably transfected with the human calcitonin receptor (Assay VII); also called hCTR; hCT
T1 sequence (looked up): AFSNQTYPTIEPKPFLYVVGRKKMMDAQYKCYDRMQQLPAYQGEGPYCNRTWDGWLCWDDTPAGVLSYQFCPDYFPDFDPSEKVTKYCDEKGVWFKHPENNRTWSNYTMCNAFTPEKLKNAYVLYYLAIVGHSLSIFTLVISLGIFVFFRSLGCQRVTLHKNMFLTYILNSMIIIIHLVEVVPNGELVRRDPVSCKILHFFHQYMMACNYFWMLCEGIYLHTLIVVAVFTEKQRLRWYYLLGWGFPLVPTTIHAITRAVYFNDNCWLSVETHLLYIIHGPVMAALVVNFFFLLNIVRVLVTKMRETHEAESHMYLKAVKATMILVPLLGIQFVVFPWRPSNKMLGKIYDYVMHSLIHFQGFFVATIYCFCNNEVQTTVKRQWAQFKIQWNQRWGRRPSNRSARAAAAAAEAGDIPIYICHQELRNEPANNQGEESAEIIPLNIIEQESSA

T2: rat calcitonin receptor (rat, UniProt P32214 25-516)
T2 construct: whole, on cells; Used as membranes prepared from BHK tk'ts 13 cells transiently transfected with the rat calcitonin receptor (Assay VIII); also called rCTR; rat calcitonin (a) receptor
T2 sequence (looked up): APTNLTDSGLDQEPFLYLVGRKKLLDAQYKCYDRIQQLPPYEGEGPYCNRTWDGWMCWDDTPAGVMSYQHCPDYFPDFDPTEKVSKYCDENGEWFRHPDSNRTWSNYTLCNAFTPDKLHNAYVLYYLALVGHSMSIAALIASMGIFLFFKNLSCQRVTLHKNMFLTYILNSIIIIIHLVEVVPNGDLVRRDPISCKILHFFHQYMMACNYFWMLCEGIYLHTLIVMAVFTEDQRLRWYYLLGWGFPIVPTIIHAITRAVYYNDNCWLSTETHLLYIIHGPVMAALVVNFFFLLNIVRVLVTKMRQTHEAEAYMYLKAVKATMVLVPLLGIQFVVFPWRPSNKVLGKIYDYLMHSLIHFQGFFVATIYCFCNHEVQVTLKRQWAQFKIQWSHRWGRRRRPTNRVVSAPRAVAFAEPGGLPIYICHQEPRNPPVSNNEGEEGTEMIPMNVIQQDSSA

T3: rat amylin receptor (rat calcitonin receptor + rat RAMP 3) (rat, UniProt P32214 25-516; Q9JJ73 23-147)
T3 construct: whole, on cells; Used as membranes prepared from BHK tk'ts 13 cells transiently transfected with rat calcitonin receptor and rat RAMP 3 (Assay VI); also called rAmylin-R; rat amylin 3(a) receptor
T3 sequence (looked up) 1: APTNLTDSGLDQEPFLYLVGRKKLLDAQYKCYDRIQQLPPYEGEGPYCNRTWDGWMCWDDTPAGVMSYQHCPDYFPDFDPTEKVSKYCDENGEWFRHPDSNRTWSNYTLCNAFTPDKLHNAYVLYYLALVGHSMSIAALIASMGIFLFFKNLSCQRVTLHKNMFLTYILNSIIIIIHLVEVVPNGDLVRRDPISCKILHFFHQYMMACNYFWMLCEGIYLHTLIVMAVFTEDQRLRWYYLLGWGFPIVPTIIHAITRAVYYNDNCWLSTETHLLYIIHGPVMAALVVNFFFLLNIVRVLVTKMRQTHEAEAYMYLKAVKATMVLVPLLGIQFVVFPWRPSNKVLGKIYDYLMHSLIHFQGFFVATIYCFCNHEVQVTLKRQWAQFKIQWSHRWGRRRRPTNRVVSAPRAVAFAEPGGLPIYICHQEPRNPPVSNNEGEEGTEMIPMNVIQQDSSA
T3 sequence (looked up) 2: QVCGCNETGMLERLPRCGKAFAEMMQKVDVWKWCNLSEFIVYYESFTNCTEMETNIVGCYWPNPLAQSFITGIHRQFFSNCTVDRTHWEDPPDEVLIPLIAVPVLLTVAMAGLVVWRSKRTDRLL


Columns and labels:
[1] = target: T1, human calcitonin receptor; test: IC50 on human CTR divided by IC50 on human amylin receptor (Assays VII/V)
Summary of the method: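 Competition binding by SPA uses membrane preparations (35 ng/μL final) in pH 7.4 Hepes buffer with 1 mM CaCl2 and 5 mM MgCl₂. Incubation lasts 120 min at 25° C, and IC₅₀ comes from one-site fitting.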

rat calcitonin receptor [2] = target: T2, rat calcitonin receptor; test: IC50 on rat CTR divided by IC50 on rat amylin receptor (Assays VIII/VI)
rat calcitonin receptor [3] = target: T2, rat calcitonin receptor; test: SPA competition with 125I-calcitonin, membranes of BHK cells with rat CTR (Assay VIII)
[4] = target: T3, rat amylin receptor (rat calcitonin …); test: SPA competition with 125I-rat amylin, membranes of BHK cells with rat CTR + rat RAMP3 (Assay VI)

| Ratio hCT/hAmylin binding [1] | Ratio rCT/rAmylin binding (rat calcitonin receptor [2]) | IC50 (rat calcitonin receptor [3]) [nM] | IC50 [4] [nM] | Binder |
| --- | --- | --- | --- | --- |
| 51.6 | 85.4 | 14.7 | 0.172 | K([γGlu-C20 diacid])CNTATCATQRLAHFLRHSSPNFGAIPSSTNVGPNTY-NH2 (disulfide 2-7; N-terminus assumed; SMILES CC[C@H](C)[C@H](NC(=O)[C@H](C)NC(=O)CNC(=O)[C@H](Cc1ccccc1)NC(=O)[C@H](CC(N)=O)NC(=O)[C@@H]1CCCN1C(=O)[C@H](CO)NC(=O)[C@H](CO)NC(=O)[C@H](Cc1c[nH]cn1)NC(=O)[C@H](CCCNC(=N)N)NC(=O)[C@H](CC(C)C)NC(=O)[C@H](Cc1ccccc1)NC(=O)[C@H](Cc1c[nH]cn1)NC(=O)[C@H](C)NC(=O)[C@H](CC(C)C)NC(=O)[C@H](CCCNC(=N)N)NC(=O)[C@H](CCC(N)=O)NC(=O)[C@@H](NC(=O)[C@H](C)NC(=O)[C@@H]1CSSC[C@H](NC(=O)[C@@H](N)CCCCNC(=O)CC[C@H](NC(=O)CCCCCCCCCCCCCCCCCCC(=O)O)C(=O)O)C(=O)N[C@@H](CC(N)=O)C(=O)N[C@@H]([C@@H](C)O)C(=O)N[C@@H](C)C(=O)N[C@@H]([C@@H](C)O)C(=O)N1)[C@@H](C)O)C(=O)N1CCC[C@H]1C(=O)N[C@@H](CO)C(=O)N[C@@H](CO)C(=O)N[C@H](C(=O)N[C@@H](CC(N)=O)C(=O)N[C@H](C(=O)NCC(=O)N1CCC[C@H]1C(=O)N[C@@H](CC(N)=O)C(=O)N[C@H](C(=O)N[C@@H](Cc1ccc(O)cc1)C(N)=O)[C@@H](C)O)C(C)C)[C@@H](C)O, Analogue of human amylin; also called compound 67) |
| 60.8 | 96.5 | 34.2 | 0.355 | K([γGlu-C20 diacid])CNTATCATQRLAHFLRHSSPNFGAIPSSTNVGSNTY-NH2 (disulfide 2-7; N-terminus assumed; SMILES CC[C@H](C)[C@H](NC(=O)[C@H](C)NC(=O)CNC(=O)[C@H](Cc1ccccc1)NC(=O)[C@H](CC(N)=O)NC(=O)[C@@H]1CCCN1C(=O)[C@H](CO)NC(=O)[C@H](CO)NC(=O)[C@H](Cc1c[nH]cn1)NC(=O)[C@H](CCCNC(=N)N)NC(=O)[C@H](CC(C)C)NC(=O)[C@H](Cc1ccccc1)NC(=O)[C@H](Cc1c[nH]cn1)NC(=O)[C@H](C)NC(=O)[C@H](CC(C)C)NC(=O)[C@H](CCCNC(=N)N)NC(=O)[C@H](CCC(N)=O)NC(=O)[C@@H](NC(=O)[C@H](C)NC(=O)[C@@H]1CSSC[C@H](NC(=O)[C@@H](N)CCCCNC(=O)CC[C@H](NC(=O)CCCCCCCCCCCCCCCCCCC(=O)O)C(=O)O)C(=O)N[C@@H](CC(N)=O)C(=O)N[C@@H]([C@@H](C)O)C(=O)N[C@@H](C)C(=O)N[C@@H]([C@@H](C)O)C(=O)N1)[C@@H](C)O)C(=O)N1CCC[C@H]1C(=O)N[C@@H](CO)C(=O)N[C@@H](CO)C(=O)N[C@H](C(=O)N[C@@H](CC(N)=O)C(=O)N[C@H](C(=O)NCC(=O)N[C@@H](CO)C(=O)N[C@@H](CC(N)=O)C(=O)N[C@H](C(=O)N[C@@H](Cc1ccc(O)cc1)C(N)=O)[C@@H](C)O)C(C)C)[C@@H](C)O, Analogue of human amylin; also called compound 70) [N^ε1-[(4S)-4-carboxy-4-(19-carboxynonadecanoylamino)butanoyl]-[His14,Arg17,Pro21,Pro27]-h-amylin] |

More lines, now with the values behind:

| Binder | Ratio hCT/hAmylin binding [1] | Ratio rCT/rAmylin binding (rat calcitonin receptor [2]) | IC50 (rat calcitonin receptor [3]) [nM] | IC50 [4] [nM] |
| --- | --- | --- | --- | --- |
| K([γGlu-C20 diacid])CNTATCATQRLAHFLRHSSPNFGAIPSSTNVGHNTY-NH2 (disulfide 2-7; N-terminus assumed; SMILES CC[C@H](C)[C@H](NC(=O)[C@H](C)NC(=O)CNC(=O)[C@H](Cc1ccccc1)NC(=O)[C@H](CC(N)=O)NC(=O)[C@@H]1CCCN1C(=O)[C@H](CO)NC(=O)[C@H](CO)NC(=O)[C@H](Cc1c[nH]cn1)NC(=O)[C@H](CCCNC(=N)N)NC(=O)[C@H](CC(C)C)NC(=O)[C@H](Cc1ccccc1)NC(=O)[C@H](Cc1c[nH]cn1)NC(=O)[C@H](C)NC(=O)[C@H](CC(C)C)NC(=O)[C@H](CCCNC(=N)N)NC(=O)[C@H](CCC(N)=O)NC(=O)[C@@H](NC(=O)[C@H](C)NC(=O)[C@@H]1CSSC[C@H](NC(=O)[C@@H](N)CCCCNC(=O)CC[C@H](NC(=O)CCCCCCCCCCCCCCCCCCC(=O)O)C(=O)O)C(=O)N[C@@H](CC(N)=O)C(=O)N[C@@H]([C@@H](C)O)C(=O)N[C@@H](C)C(=O)N[C@@H]([C@@H](C)O)C(=O)N1)[C@@H](C)O)C(=O)N1CCC[C@H]1C(=O)N[C@@H](CO)C(=O)N[C@@H](CO)C(=O)N[C@H](C(=O)N[C@@H](CC(N)=O)C(=O)N[C@H](C(=O)NCC(=O)N[C@@H](Cc1c[nH]cn1)C(=O)N[C@@H](CC(N)=O)C(=O)N[C@H](C(=O)N[C@@H](Cc1ccc(O)cc1)C(N)=O)[C@@H](C)O)C(C)C)[C@@H](C)O, Analogue of human amylin; also called compound 81) | 87.2 | 42.9 | 61.1 | 1.42 |
| K([γGlu-C20 diacid])CNTATCATQRLAHFLRHSSPNFGAIPSSTNVGSHTY-NH2 (disulfide 2-7; N-terminus assumed; SMILES CC[C@H](C)[C@H](NC(=O)[C@H](C)NC(=O)CNC(=O)[C@H](Cc1ccccc1)NC(=O)[C@H](CC(N)=O)NC(=O)[C@@H]1CCCN1C(=O)[C@H](CO)NC(=O)[C@H](CO)NC(=O)[C@H](Cc1c[nH]cn1)NC(=O)[C@H](CCCNC(=N)N)NC(=O)[C@H](CC(C)C)NC(=O)[C@H](Cc1ccccc1)NC(=O)[C@H](Cc1c[nH]cn1)NC(=O)[C@H](C)NC(=O)[C@H](CC(C)C)NC(=O)[C@H](CCCNC(=N)N)NC(=O)[C@H](CCC(N)=O)NC(=O)[C@@H](NC(=O)[C@H](C)NC(=O)[C@@H]1CSSC[C@H](NC(=O)[C@@H](N)CCCCNC(=O)CC[C@H](NC(=O)CCCCCCCCCCCCCCCCCCC(=O)O)C(=O)O)C(=O)N[C@@H](CC(N)=O)C(=O)N[C@@H]([C@@H](C)O)C(=O)N[C@@H](C)C(=O)N[C@@H]([C@@H](C)O)C(=O)N1)[C@@H](C)O)C(=O)N1CCC[C@H]1C(=O)N[C@@H](CO)C(=O)N[C@@H](CO)C(=O)N[C@H](C(=O)N[C@@H](CC(N)=O)C(=O)N[C@H](C(=O)NCC(=O)N[C@@H](CO)C(=O)N[C@@H](Cc1c[nH]cn1)C(=O)N[C@H](C(=O)N[C@@H](Cc1ccc(O)cc1)C(N)=O)[C@@H](C)O)C(C)C)[C@@H](C)O, Analogue of human amylin; also called compound 66) | 45.5 | 35.8 | 20.8 | 0.581 |
| K([γGlu-C20 diacid])CNTATCATQRLAHFLRHSSPNFGAIPSSTPVGSNTY-NH2 (disulfide 2-7; N-terminus assumed; SMILES CC[C@H](C)[C@H](NC(=O)[C@H](C)NC(=O)CNC(=O)[C@H](Cc1ccccc1)NC(=O)[C@H](CC(N)=O)NC(=O)[C@@H]1CCCN1C(=O)[C@H](CO)NC(=O)[C@H](CO)NC(=O)[C@H](Cc1c[nH]cn1)NC(=O)[C@H](CCCNC(=N)N)NC(=O)[C@H](CC(C)C)NC(=O)[C@H](Cc1ccccc1)NC(=O)[C@H](Cc1c[nH]cn1)NC(=O)[C@H](C)NC(=O)[C@H](CC(C)C)NC(=O)[C@H](CCCNC(=N)N)NC(=O)[C@H](CCC(N)=O)NC(=O)[C@@H](NC(=O)[C@H](C)NC(=O)[C@@H]1CSSC[C@H](NC(=O)[C@@H](N)CCCCNC(=O)CC[C@H](NC(=O)CCCCCCCCCCCCCCCCCCC(=O)O)C(=O)O)C(=O)N[C@@H](CC(N)=O)C(=O)N[C@@H]([C@@H](C)O)C(=O)N[C@@H](C)C(=O)N[C@@H]([C@@H](C)O)C(=O)N1)[C@@H](C)O)C(=O)N1CCC[C@H]1C(=O)N[C@@H](CO)C(=O)N[C@@H](CO)C(=O)N[C@H](C(=O)N1CCC[C@H]1C(=O)N[C@H](C(=O)NCC(=O)N[C@@H](CO)C(=O)N[C@@H](CC(N)=O)C(=O)N[C@H](C(=O)N[C@@H](Cc1ccc(O)cc1)C(N)=O)[C@@H](C)O)C(C)C)[C@@H](C)O, Analogue of human amylin; also called compound 62) | 63 | 42.8 | 18 | 0.42 |
